Each block holds one substance with its values, some of them ahead of it.
Key:
GFP-Kv2.1-K470Q (rat) = assay: TIRF single-particle photobleaching step counting
[1] = biological target: Gln-Lys-Gln-Gln tetrameric Kv2.1 construct (rat); assay: TIRF single-particle photobleaching step counting
[2] = biological target: Gln-Lys-Lys-Gln tetrameric Kv2.1 construct (rat); assay: TIRF single-particle photobleaching step counting
[3] = biological target: Lys-Gln-Gln-Gln tetrameric Kv2.1 construct (rat); assay: TIRF single-particle photobleaching step counting
CFP-Kv2.1-K470Q (rat) = assay: FRET or BRET
CFP-Kv2.1 (rat) = CFP-Kv2.1 (rat) (UniProt P15387); assay: FRET or BRET

stoichiometry N (GFP-Kv2.1-K470Q (rat)): 4
Substance: GFP-Kv2.1-K470Q (natural protein)

stoichiometry N [1]: 1
stoichiometry N [2]: 1
stoichiometry N [3]: 1
Substance: GFP-SUMO1_(101) (from UniProt P63165 1-101) (natural protein)

CFP donor photobleaching decay time constant (tau) (CFP-Kv2.1-K470Q (rat)): 26.2 s
Substance: YFP-Kv2.1-K470Q (natural protein)

CFP donor photobleaching decay time constant (tau) (CFP-Kv2.1 (rat)): 23.2 s
Substance: YFP-Ubc9 (from UniProt P63279 1-158) (enzyme)

Reference: paper PMC3082930
